Results reported in patent US5985836A, “Alpha-1 proteinase inhibitor binding peptides” (Bayer Corporation, priority 1998, dated 1999).
Values belong to the substance of their own block, whether it stands above or below them. Ends that are not written are not given here.

Columns and labels:
[1] = biological target: T1, A1PI (Homo sapiens, UniProt P01009); test: Purification of A1PI from Effluent II+III on peptide column, A1PI mass balance; type: binding; conditions: A1PI, 1 ml Eff. II+III, 4° C.
T1 construct: Human plasma is currently the only approved source of therapeutic AlPI
T1 sequence (P01009 25-418): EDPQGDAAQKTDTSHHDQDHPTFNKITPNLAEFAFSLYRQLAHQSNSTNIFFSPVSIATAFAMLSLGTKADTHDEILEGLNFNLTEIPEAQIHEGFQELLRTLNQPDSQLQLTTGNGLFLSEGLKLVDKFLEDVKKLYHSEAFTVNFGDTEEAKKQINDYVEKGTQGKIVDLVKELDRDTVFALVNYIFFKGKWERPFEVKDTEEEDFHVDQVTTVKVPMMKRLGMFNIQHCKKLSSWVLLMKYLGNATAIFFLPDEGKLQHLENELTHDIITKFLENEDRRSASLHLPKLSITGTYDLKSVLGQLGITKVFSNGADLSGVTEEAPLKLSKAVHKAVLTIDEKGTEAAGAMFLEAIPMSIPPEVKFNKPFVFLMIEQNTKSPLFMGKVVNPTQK
Procedure: (§1) Sequences 1-11 and 15 were assayed with Effluent II+III (Eff. II+III). Eff. II+III is a process intermediate in the Cohn plasma fractionation process. The feed stream contains 20% (by volume) ethanol, 20-25 mg/ml hSA and approximately 1 mg/ml AlPI. The stream also contains other proteins including anti-thrombin III (AT3), immunoglobin G (IgG), immunoglobin A (IgA), apolipoprotein alpha-1 (Apo A-1), transferrin (Trf), haptoglobin (Hpt), and alpha-1 acid glycoprotein (AAG) at concentrations ranging from 0.1-1 mg/ml.
(§2) The columns were assayed using the same technique as the hSA+AlPI experiments, allowing for a 10 minute residence time followed by a constant flow rate of 865 μl/min with step elutions of 1M NaCl, 3M NaCl, and 2% acetic acid. All experiments were conducted at 4° C. The mass balances for the injection of 1 ml Eff. […] The AlPI was enriched from 3% of the total protein in the feed to upwards of 50% in the acid eluate.

[2] = tested on: Immunoglobulin G (IgG); test: Purification from Effluent II+III, IgG mass balance; type: binding, human; conditions: 1 ml Eff. II+III, 4° C.
Procedure: as §1, §2

[3] = biological target: T1, A1PI; test: A1PI purification from 5 mg hSA + 1 mg A1PI on peptide column, A1PI mass balance; type: binding; conditions: A1PI, 5 mg hSA + 1 mg A1PI; for Percent Eluted by Fraction, 1M NaCl / Percent Eluted by Fraction, 2% Ac. Acid / Percent Eluted by Fraction, 3M NaCl / Percent Eluted by Fraction, Flow: relative to total eluted
Summary of the method: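 Mass balance by immunonephelometry of fractions from step elutions (1M NaCl, 3M NaCl, 2% acetic acid, neutralised with Tris) at 865 μl/min. Sample was a mixture of 1 mg A1PI and 5 mg hSA held 10 min on peptide-derivatised Toyopearl columns (0.1 mmole/g) at 4 °C or 20 °C.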

[4] = biological target: T1, A1PI; test: A1PI yield from dialyzed (aqueous) Effluent II+III; type: binding; conditions: 4° C.; for Mass A1PI per Eluate Fraction, 1M NaCl / Mass A1PI per Eluate Fraction, 2% Acetic Acid / Mass A1PI per Eluate Fraction, Flowthrough: 1 ml dialyzed Eff. II+III (ethanol removed); for Percent Eluted by Fraction, 1M NaCl / Percent Eluted by Fraction, 2% Acetic Acid / Percent Eluted by Fraction, Flowthrough: A1PI, 1 ml dialyzed Eff. II+III
Procedure: Effluent II+III was dialyzed against equilibration buffer at 4° C. to remove the ethanol using a 15,000 molecular weight cut-off membrane. Nephelometry of the Eff. […] A portion of the identified sequences were assayed under the same conditions applied for neat Eff. II+III at 4° C. […] II+III compared to the neat, ethanol-containing feed. The binding strength differed for the aqueous feed as more AlPI eluted in 1M NaCl for the aqueous feed. The AlPI eluted in the 1M NaCl fractions was not as enriched as that eluted in the acid eluates.

[5] = biological target: T2, apolipoprotein alpha-1 (Apo A-1) (Homo sapiens, UniProt P02647); test: Purification from Effluent II+III, Apo A-1 mass balance; type: binding; conditions: 1 ml Eff. II+III, 4° C.; for Mass Protein per Eluate Fraction, 2% Acetic Acid: * as in Tables 4, 5 (below detection limit)
T2 construct: Eff; II+III is a process intermediate in the Cohn plasma fractionation process; tissue Bayer Corporation (Clayton, N.C.); host or cells: plasma fraction: Cohn Effluent II+III
T2 sequence (P02647 19-267): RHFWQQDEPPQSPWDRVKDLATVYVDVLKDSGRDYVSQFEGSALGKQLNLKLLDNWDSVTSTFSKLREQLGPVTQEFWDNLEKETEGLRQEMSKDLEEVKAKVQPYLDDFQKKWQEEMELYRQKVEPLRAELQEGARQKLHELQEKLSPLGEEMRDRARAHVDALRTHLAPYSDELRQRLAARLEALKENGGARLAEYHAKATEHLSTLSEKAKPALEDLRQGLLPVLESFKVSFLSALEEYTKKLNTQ
Procedure: as §1, §2

[6] = tested on: Immunoglobulin A (IgA); test: Purification from Effluent II+III, IgA mass balance; type: binding, human; conditions: 1 ml Eff. II+III, 4° C.; for Mass Protein per Eluate Fraction, 1M NaCl / Mass Protein per Eluate Fraction, 2% Acetic Acid / Mass Protein per Eluate Fraction, Flow: * as in Tables 4, 5 (below detection limit)
Procedure: as §1, §2

[7] = biological target: T1, A1PI; test: A1PI binding on peptide-resin column, injection of 1 mg A1PI in equilibration buffer; conditions: 1 mg A1PI in equilibration buffer; for Percent A1PI Eluted by Fraction Based on Absorbance at 280 nm, 1M NaCl / Percent A1PI Eluted by Fraction Based on Absorbance at 280 nm, 2% Acetic Acid / Percent A1PI Eluted by Fraction Based on Absorbance at 280 nm, Flowthrough: 4° C.; for Percent A1PI Eluted by Fraction, 1M NaCl / Percent A1PI Eluted by Fraction, 2% Acetic Acid / Percent A1PI Eluted by Fraction, Flowthrough: 20° C.
Summary of the method: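 Percent of total eluted A1PI per fraction (flowthrough, NaCl steps, 2% acetic acid) determined by A280 integration or immunonephelometry. Columns of peptide-derivatized A-Totda-Toyopearl resin (0.1 mmole/g) received 1 mg A1PI at 4 °C or 20 °C, flow 865 or 523 μl/min.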

[8] = * as in Tables 4, 5 (below detection limit)
[9] = 20° C., * Below detection limit

Percent Eluted by Fraction, 1M NaCl [1]: 7%
Percent Eluted by Fraction, 2% Acetic Acid [1]: 75%
Percent Eluted by Fraction, 3M NaCl [1]: 0%
Percent Eluted by Fraction, Flow [1]: 18%
Mass Protein per Eluate Fraction, 1M NaCl [1, 8]: 0.08 mg
Mass Protein per Eluate Fraction, 2% Acetic Acid [1, 8]: 0.81 mg
Mass Protein per Eluate Fraction, Flow [1, 8]: 0.20 mg
Mass Protein per Eluate Fraction, 1M NaCl ([3]; 4° C., * Below detection limit): 0.33 mg
Mass Protein per Eluate Fraction, 2% Ac. Acid ([3]; 4° C., * Below detection limit): 0.41 mg
Mass Protein per Eluate Fraction, 3M NaCl ([3]; 4° C., * Below detection limit): 0.04 mg
Percent Eluted by Fraction, 1M NaCl ([3]; 4° C.): 43%
Percent Eluted by Fraction, 2% Ac. Acid ([3]; 4° C.): 53%
Percent Eluted by Fraction, 3M NaCl ([3]; 4° C.): 5%
Percent Eluted by Fraction, Flow ([3]; 4° C.): 0%
Mass Protein per Eluate Fraction, 1M NaCl [3, 9]: 0.16 mg
Mass Protein per Eluate Fraction, 2% Ac. Acid [3, 9]: 0.15 mg
Mass Protein per Eluate Fraction, Flow [3, 9]: 0.67 mg
Percent Eluted by Fraction, 1M NaCl ([3]; 20° C.): 16%
Percent Eluted by Fraction, 2% Ac. Acid ([3]; 20° C.): 15%
Percent Eluted by Fraction, 3M NaCl ([3]; 20° C.): 0%
Percent Eluted by Fraction, Flow ([3]; 20° C.): 69%
Mass A1PI per Eluate Fraction, 1M NaCl [4]: 0.18 mg
Mass A1PI per Eluate Fraction, 2% Acetic Acid [4]: 0.20 mg
Mass A1PI per Eluate Fraction, Flowthrough [4]: 0.24 mg
Percent Eluted by Fraction, 1M NaCl [4]: 30%
Percent Eluted by Fraction, 2% Acetic Acid [4]: 32%
Percent Eluted by Fraction, Flowthrough [4]: 39%
Percent Eluted by Fraction, 1M NaCl [5]: 0%
Percent Eluted by Fraction, 2% Acetic Acid [5]: 100%
Percent Eluted by Fraction, 3M NaCl [5]: 0%
Percent Eluted by Fraction, Flow [5]: 0%
Mass Protein per Eluate Fraction, 2% Acetic Acid [5]: 0.29 mg
Percent A1PI Eluted by Fraction Based on Absorbance at 280 nm, 1M NaCl [7]: 55%
Percent A1PI Eluted by Fraction Based on Absorbance at 280 nm, 2% Acetic Acid [7]: 45%
Percent A1PI Eluted by Fraction Based on Absorbance at 280 nm, Flowthrough [7]: 0%
Percent A1PI Eluted by Fraction, 1M NaCl [7]: 84%
Percent A1PI Eluted by Fraction, 2% Acetic Acid [7]: 16%
Percent A1PI Eluted by Fraction, Flowthrough [7]: 0%
Substance: ARWYIH
Percent Eluted by Fraction, 1M NaCl [2]: 0%
Percent Eluted by Fraction, 2% Acetic Acid [2]: 7%
Percent Eluted by Fraction, 3M NaCl [2]: 0%
Percent Eluted by Fraction, Flow [2]: 93%
Mass Protein per Eluate Fraction, 2% Acetic Acid [2, 8]: 0.02 mg
Mass Protein per Eluate Fraction, Flow [2, 8]: 0.23 mg
Percent Eluted by Fraction, 1M NaCl [6]: 18%
Percent Eluted by Fraction, 2% Acetic Acid [6]: 56%
Percent Eluted by Fraction, 3M NaCl [6]: 0%
Percent Eluted by Fraction, Flow [6]: 25%
Mass Protein per Eluate Fraction, 1M NaCl [6]: 0.07 mg
Mass Protein per Eluate Fraction, 2% Acetic Acid [6]: 0.21 mg
Mass Protein per Eluate Fraction, Flow [6]: 0.09 mg

Percent Eluted by Fraction, 1M NaCl [1]: 0%
Percent Eluted by Fraction, 2% Acetic Acid [1]: 79%
Percent Eluted by Fraction, 3M NaCl [1]: 0%
Percent Eluted by Fraction, Flow [1]: 21%
Mass Protein per Eluate Fraction, 2% Acetic Acid [1, 8]: 0.50 mg
Mass Protein per Eluate Fraction, Flow [1, 8]: 0.13 mg
Mass Protein per Eluate Fraction, 1M NaCl ([3]; 4° C., * Below detection limit): 0.10 mg
Mass Protein per Eluate Fraction, 2% Ac. Acid ([3]; 4° C., * Below detection limit): 0.18 mg
Mass Protein per Eluate Fraction, Flow ([3]; 4° C., * Below detection limit): 0.52 mg
Percent Eluted by Fraction, 1M NaCl ([3]; 4° C.): 13%
Percent Eluted by Fraction, 2% Ac. Acid ([3]; 4° C.): 23%
Percent Eluted by Fraction, 3M NaCl ([3]; 4° C.): 0%
Percent Eluted by Fraction, Flow ([3]; 4° C.): 65%
Mass Protein per Eluate Fraction, 1M NaCl [3, 9]: 0.07 mg
Mass Protein per Eluate Fraction, 2% Ac. Acid [3, 9]: 0.47 mg
Mass Protein per Eluate Fraction, Flow [3, 9]: 0.26 mg
Percent Eluted by Fraction, 1M NaCl ([3]; 20° C.): 9%
Percent Eluted by Fraction, 2% Ac. Acid ([3]; 20° C.): 58%
Percent Eluted by Fraction, 3M NaCl ([3]; 20° C.): 0%
Percent Eluted by Fraction, Flow ([3]; 20° C.): 33%
Mass A1PI per Eluate Fraction, 1M NaCl [4]: 0.05 mg
Mass A1PI per Eluate Fraction, 2% Acetic Acid [4]: 0.38 mg
Mass A1PI per Eluate Fraction, Flowthrough [4]: 0.19 mg
Percent Eluted by Fraction, 1M NaCl [4]: 9%
Percent Eluted by Fraction, 2% Acetic Acid [4]: 60%
Percent Eluted by Fraction, Flowthrough [4]: 31%
Percent Eluted by Fraction, 1M NaCl [5]: 0%
Percent Eluted by Fraction, 2% Acetic Acid [5]: 100%
Percent Eluted by Fraction, 3M NaCl [5]: 0%
Percent Eluted by Fraction, Flow [5]: 0%
Mass Protein per Eluate Fraction, 2% Acetic Acid [5]: 0.43 mg
Percent A1PI Eluted by Fraction Based on Absorbance at 280 nm, 1M NaCl [7]: 52%
Percent A1PI Eluted by Fraction Based on Absorbance at 280 nm, 2% Acetic Acid [7]: 48%
Percent A1PI Eluted by Fraction Based on Absorbance at 280 nm, Flowthrough [7]: 0%
Percent A1PI Eluted by Fraction, 1M NaCl [7]: 17%
Percent A1PI Eluted by Fraction, 2% Acetic Acid [7]: 55%
Percent A1PI Eluted by Fraction, Flowthrough [7]: 28%
Substance: IIWLYK
Percent Eluted by Fraction, 1M NaCl [2]: 9%
Percent Eluted by Fraction, 2% Acetic Acid [2]: 0%
Percent Eluted by Fraction, 3M NaCl [2]: 0%
Percent Eluted by Fraction, Flow [2]: 91%
Mass Protein per Eluate Fraction, 1M NaCl [2, 8]: 0.02 mg
Mass Protein per Eluate Fraction, Flow [2, 8]: 0.23 mg
Percent Eluted by Fraction, 1M NaCl [6]: 34%
Percent Eluted by Fraction, 2% Acetic Acid [6]: 49%
Percent Eluted by Fraction, 3M NaCl [6]: 0%
Percent Eluted by Fraction, Flow [6]: 17%
Mass Protein per Eluate Fraction, 1M NaCl [6]: 0.12 mg
Mass Protein per Eluate Fraction, 2% Acetic Acid [6]: 0.17 mg
Mass Protein per Eluate Fraction, Flow [6]: 0.06 mg
